Reference: publication doi:10.1101/2022.06.14.496074 (bioRxiv, 2022)

Assays:
[1] = biological target: T1, AcrA (E. coli (K12 derived strain)), P0AE06; assay: SEC; details: remark: other sources report otherwise
T1 chain: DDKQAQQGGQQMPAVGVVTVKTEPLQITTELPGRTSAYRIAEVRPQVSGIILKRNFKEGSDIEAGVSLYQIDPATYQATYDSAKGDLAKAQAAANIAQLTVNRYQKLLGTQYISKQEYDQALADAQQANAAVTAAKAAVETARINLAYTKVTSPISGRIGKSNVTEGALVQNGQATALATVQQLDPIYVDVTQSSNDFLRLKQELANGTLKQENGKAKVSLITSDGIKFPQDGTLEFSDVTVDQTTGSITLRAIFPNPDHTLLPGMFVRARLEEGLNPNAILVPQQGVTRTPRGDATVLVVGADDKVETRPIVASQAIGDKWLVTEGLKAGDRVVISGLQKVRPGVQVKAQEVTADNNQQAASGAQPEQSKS

[2] = biological target: T2, TolC (E. coli, UniProt P02930 23-493); assay: single-channel electrophysiology
T2 sequence: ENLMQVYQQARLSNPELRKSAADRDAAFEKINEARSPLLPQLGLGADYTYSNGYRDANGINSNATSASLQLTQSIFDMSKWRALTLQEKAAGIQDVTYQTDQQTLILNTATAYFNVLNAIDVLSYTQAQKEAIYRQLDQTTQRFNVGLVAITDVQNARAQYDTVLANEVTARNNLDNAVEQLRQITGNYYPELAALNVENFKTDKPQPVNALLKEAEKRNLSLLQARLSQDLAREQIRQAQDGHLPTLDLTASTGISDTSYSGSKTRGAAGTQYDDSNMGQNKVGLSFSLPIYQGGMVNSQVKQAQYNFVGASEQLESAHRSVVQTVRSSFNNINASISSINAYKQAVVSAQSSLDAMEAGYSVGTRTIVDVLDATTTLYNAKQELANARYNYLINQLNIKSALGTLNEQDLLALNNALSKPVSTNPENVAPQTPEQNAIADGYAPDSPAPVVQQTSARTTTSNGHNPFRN

stoichiometry N [1]: 2
binding result [2]: binds
B1: AcrA (natural protein)
chain: DDKQAQQGGQQMPAVGVVTVKTEPLQITTELPGRTSAYRIAEVRPQVSGIILKRNFKEGSDIEAGVSLYQIDPATYQATYDSAKGDLAKAQAAANIAQLTVNRYQKLLGTQYISKQEYDQALADAQQANAAVTAAKAAVETARINLAYTKVTSPISGRIGKSNVTEGALVQNGQATALATVQQLDPIYVDVTQSSNDFLRLKQELANGTLKQENGKAKVSLITSDGIKFPQDGTLEFSDVTVDQTTGSITLRAIFPNPDHTLLPGMFVRARLEEGLNPNAILVPQQGVTRTPRGDATVLVVGADDKVETRPIVASQAIGDKWLVTEGLKAGDRVVISGLQKVRPGVQVKAQEVTADNNQQAASGAQPEQSKS
